Experimental data: PMC6271157, “High Efficiency Acetylcholinesterase Immobilization on DNA Aptamer Modified Surfaces”

Assays:
[1] = biological target: T1, acetylcholinesterase (AChE) (electric eel, UniProt O42275 24-633); experiment: ELONA; low ionic strength ~0.02 M, no NaCl, 4 mM MgCl2; 8 mM Na2HPO4, 2 mM NaH2PO4, 2.7 mM KCl, 137 mM NaCl, 4 mM MgCl2, pH 7.4, room temperature, 2 h; wells coated with 10 nM AChE, blocked with 1% BSA; washes with 0.05% Tween 20; settings: protein: native; label: 5'-biotin, detected by streptavidin-HRP
[2] = biological target: T1, acetylcholinesterase (AChE); experiment: ELONA; selection buffer, ionic strength ~0.15 M, 137 mM NaCl, 4 mM MgCl2; 8 mM Na2HPO4, 2 mM NaH2PO4, 2.7 mM KCl, 137 mM NaCl, 4 mM MgCl2, pH 7.4, room temperature, 2 h; wells coated with 10 nM AChE, blocked with 1% BSA; washes with 0.05% Tween 20; settings: protein: native; label: 5'-biotin, detected by streptavidin-HRP

T1 sequence (O42275 24-633): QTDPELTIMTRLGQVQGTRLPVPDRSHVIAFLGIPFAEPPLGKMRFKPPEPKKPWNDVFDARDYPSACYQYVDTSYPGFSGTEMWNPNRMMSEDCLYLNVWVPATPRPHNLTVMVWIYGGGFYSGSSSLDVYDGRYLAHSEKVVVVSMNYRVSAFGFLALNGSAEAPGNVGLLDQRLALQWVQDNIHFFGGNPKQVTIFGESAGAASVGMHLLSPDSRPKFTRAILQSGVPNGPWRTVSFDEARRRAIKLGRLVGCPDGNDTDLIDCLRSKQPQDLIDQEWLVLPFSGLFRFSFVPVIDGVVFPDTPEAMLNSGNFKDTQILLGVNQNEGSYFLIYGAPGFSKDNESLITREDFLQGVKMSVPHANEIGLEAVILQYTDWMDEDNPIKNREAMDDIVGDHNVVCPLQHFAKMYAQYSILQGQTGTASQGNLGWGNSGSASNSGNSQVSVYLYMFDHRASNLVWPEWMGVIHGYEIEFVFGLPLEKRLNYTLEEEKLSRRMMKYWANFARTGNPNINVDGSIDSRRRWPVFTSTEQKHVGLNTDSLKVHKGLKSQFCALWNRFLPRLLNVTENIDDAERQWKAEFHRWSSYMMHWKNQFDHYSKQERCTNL

B1: R15/19 (also R15/C19) (ssDNA)
DNA: AAGCATCCGCTGGTTGACTGTAGCTCTGGCAGACGTAGTGTGAAGGTACCAGCTATTGGGATCTTGGACCCTGCGAA
modifications: 5'-biotin (ELONA)
- Kd [1]: 0.243 ± 0.047 nM
- Kd [2]: 0.157 ± 0.042 nM
